Biological target: human hair (hair keratin) (human)
Assay: quantitative hair binding assay, peroxidase coupled via the His tag, TMB

- absorption at 405 nm: 0.65 A405 nm
B1: KBD-B (keratin-binding domain B of human desmoplakin), His-tagged, expressed from pQE30-KBD-B (SEQ ID No.: 166) (protein)
chain: MRGSHHHHHHGSACELEPHTGLLLLSVQKRSMSFQGIRQPVTVTELVDSGILRPSTVNELESGQISYDEVGERIKDFLQGSSCIAGIYNETTKQKLGIYEAMKIGLVRPGTALELLEAQAATGFIVDPVSNLRLPVEEAYKRGLVGIEFKEKLLSAERAVTGYNDPETGNIISLFQAMNKELIEKGHGIRLLEAQIATGGIIDPKESHRLPVDIAYKRGYFNEELSEILSDPSDDTKGFFDPNTEENLTYLQLKERCIKDEETGLCLLPLKEKKKQVQTSQKNTLRKRRVVIVDPETNKEMSVQEGVDLQPSLIS

Reference: US20090099075A1
